Results published in ChEMBL document CHEMBL3593243, “Discovery of novel, potent, selective and cellular active ADC type PTP1B inhibitors via fragment-docking-oriented de novel design” (Bioorg Med Chem, 2015).

Columns and labels:
[1] = substrate: CCOc1cc(NS(C)(=O)=O)c(OCC)cc1CNC(=O)Nc1ccc(OC)cc1; conditions: Homo sapiens; 0.1 uM
Description: Inhibition of recombinant PTP1B (unknown origin) using pNPP as substrate assessed as enzyme Km at 0.1 uM after 30 mins by Michaelis-Menten plot analysis

[2] = substrate: CCOc1cc(NS(C)(=O)=O)c(OCC)cc1CNC(=O)Nc1ccc(OC)cc1; conditions: Homo sapiens; 0.1 uM; remark: listed apart in the source
Description: Inhibition of recombinant PTP1B (unknown origin) using pNPP as substrate assessed as enzyme Vmax at 0.1 uM after 30 mins by Michaelis-Menten plot analysis

[3] = substrate: CCOc1cc(NS(C)(=O)=O)c(OCC)cc1CNC(=O)Nc1ccc(OC)cc1; conditions: Homo sapiens; 0.8 uM
Description: Inhibition of recombinant PTP1B (unknown origin) using pNPP as substrate assessed as enzyme Vmax at 0.8 uM after 30 mins by Michaelis-Menten plot analysis

[4] = substrate: CCOc1cc(NS(C)(=O)=O)c(OCC)cc1CNC(=O)Nc1ccc(OC)cc1; conditions: Homo sapiens; 0.8 uM; remark: listed apart in the source
Description: Inhibition of recombinant PTP1B (unknown origin) using pNPP as substrate assessed as enzyme Km at 0.8 uM after 30 mins by Michaelis-Menten plot analysis

[5] = substrate: CCOc1cc(NS(C)(=O)=O)c(OCC)cc1CNC(=O)Nc1ccc(OC)cc1; conditions: Homo sapiens; 0.4 uM
Description: Inhibition of recombinant PTP1B (unknown origin) using pNPP as substrate assessed as enzyme Km at 0.4 uM after 30 mins by Michaelis-Menten plot analysis

[6] = substrate: CCOc1cc(NS(C)(=O)=O)c(OCC)cc1CNC(=O)Nc1ccc(OC)cc1; conditions: Homo sapiens; 0.4 uM; remark: listed apart in the source
Description: Inhibition of recombinant PTP1B (unknown origin) using pNPP as substrate assessed as enzyme Vmax at 0.4 uM after 30 mins by Michaelis-Menten plot analysis

[7] = substrate: CCOc1cc(NS(C)(=O)=O)c(OCC)cc1CNC(=O)Nc1ccc(OC)cc1; conditions: Homo sapiens; 0.2 uM
Description: Inhibition of recombinant PTP1B (unknown origin) using pNPP as substrate assessed as enzyme Vmax at 0.2 uM after 30 mins by Michaelis-Menten plot analysis

[8] = substrate: CCOc1cc(NS(C)(=O)=O)c(OCC)cc1CNC(=O)Nc1ccc(OC)cc1; conditions: Homo sapiens; 0.2 uM; remark: listed apart in the source
Description: Inhibition of recombinant PTP1B (unknown origin) using pNPP as substrate assessed as enzyme Km at 0.2 uM after 30 mins by Michaelis-Menten plot analysis

B1: Tyrosine-protein phosphatase non-receptor type 1 (Homo sapiens), P18031 (protein)
chain: MEMEKEFEQIDKSGSWAAIYQDIRHEASDFPCRVAKLPKNKNRNRYRDVSPFDHSRIKLHQEDNDYINASLIKMEEAQRSYILTQGPLPNTCGHFWEMVWEQKSRGVVMLNRVMEKGSLKCAQYWPQKEEKEMIFEDTNLKLTLISEDIKSYYTVRQLELENLTTQETREILHFHYTTWPDFGVPESPASFLNFLFKVRESGSLSPEHGPVVVHCSAGIGRSGTFCLADTCLLLMDKRKDPSSVDIKKVLLEMRKFRMGLIQTADQLRFSYLAVIEGAKFIMGDSSVQDQWKELSHEDLEPPPEHIPPPPRPPKRILEPHNGKCREFFPNHQWVKEETQEDKDCPIKEEKGSPLNAAPYGIESMSQDTEVRSRVVGGSLRGAQAASPAKGEPSLPEKDEDHALSYWKPFLVNMCVATVLTAGAYLCYRFLFNSNT
Km [1]: 2.96 mM
Vmax (milli optical density/minute) [2]: 58.3
Vmax (milli optical density/minute) [3]: 52.5
Km [4]: 7.32 mM
Km [5]: 4.52 mM
Vmax (milli optical density/minute) [6]: 48.9
Vmax (milli optical density/minute) [7]: 54.8
Km [8]: 3.89 mM
